Data taken from PMC6278910, “Reduced structural flexibility for an exonuclease deficient DNA polymerase III mutant†”.

Experiments:
[1] = target: T1, Pol III alpha (clamp-binding enhanced; called wild type);Pol III epsilon exonuclease (clamp-binding … (Escherichia coli;Escherichia …, UniProt P10443;P03007;P0ABS8;P0A988 1-1160;1-243;1-76;1-366, A921L;M923L|T183L;M185L;A186P;F187L|E41C|); test: smFRET; dCTP, Mg2+; kon,fast 0.8±0.1, kon,slow 0.030±0.010, koff 0.20±0.01 s-1 (25 nM enzyme); 20 mM Hepes pH 7.6, 5 mM potassium glutamate, 3 mM magnesium acetate, 2 mM DTT, 2 mM Trolox, 25 nM enzyme, 10 uM dCTP; temperature not stated. PIFE with unlabeled Pol III alpha or alpha-epsilon at 25 nM showed no binding (DNA not specified, not listed); details: protein: recombinant;recombinant;recombinant;recombinant, (HisTrap purification), Cy5 maleimide at C41;, copies: 1;1;1;2, label: 5' biotin-TEG and Cy3 (amino dT-C6) on template, 7 nt upstream from primer 3' terminus, 5' overhang 14 nt on template, matched G:ddC terminus
[2] = target: T2, Pol III alpha Y453A (clamp-binding enhanced);Pol III epsilon exonuclease (clamp-binding enhanced);Pol III … (Escherichia coli;Escherichia …, UniProt P10443;P03007;P0ABS8;P0A988 1-1160;1-243;1-76;1-366, Y453A;A921L;M923L|T183L;M185L;A186P;F187L|E41C|); test: smFRET; dCTP, Mg2+; kon,fast 0.7±0.1, kon,slow 0.05±0.01, koff 0.40±0.02 s-1; 20 mM Hepes pH 7.6, 5 mM potassium glutamate, 3 mM magnesium acetate, 2 mM DTT, 2 mM Trolox, 25 nM enzyme, 10 uM dCTP; temperature not stated. PIFE with unlabeled Pol III alpha or alpha-epsilon at 25 nM showed no binding (DNA not specified, not listed); details: protein: recombinant;recombinant;recombinant;recombinant, (HisTrap purification), Cy5 maleimide at C41;, copies: 1;1;1;2, label: 5' biotin-TEG and Cy3 (amino dT-C6) on template, 7 nt upstream from primer 3' terminus, 5' overhang 14 nt on template, matched G:ddC terminus
[3] = target: T1, Pol III alpha (clamp-binding enhanced; …); test: smFRET; dCTP, Mg2+; kon,fast 0.6±0.1, kon,slow 0.010±0.003, koff 0.20±0.01 s-1; 20 mM Hepes pH 7.6, 5 mM potassium glutamate, 3 mM magnesium acetate, 2 mM DTT, 2 mM Trolox, 25 nM enzyme, 10 uM dCTP; temperature not stated. PIFE with unlabeled Pol III alpha or alpha-epsilon at 25 nM showed no binding (DNA not specified, not listed); details: protein: recombinant;recombinant;recombinant;recombinant, (HisTrap purification), Cy5 maleimide at C41;, copies: 1;1;1;2, label: 5' biotin-TEG and Cy3 (amino dT-C6) on template, 7 nt upstream from primer 3' terminus, 5' overhang 14 nt on template, terminal G:T mismatch
[4] = target: T2, Pol III alpha Y453A (clamp-binding …); test: smFRET; dCTP, Mg2+; kon,fast 0.6±0.1, kon,slow 0.05±0.01, koff 0.30±0.01 s-1; 20 mM Hepes pH 7.6, 5 mM potassium glutamate, 3 mM magnesium acetate, 2 mM DTT, 2 mM Trolox, 25 nM enzyme, 10 uM dCTP; temperature not stated. PIFE with unlabeled Pol III alpha or alpha-epsilon at 25 nM showed no binding (DNA not specified, not listed); details: protein: recombinant;recombinant;recombinant;recombinant, (HisTrap purification), Cy5 maleimide at C41;, copies: 1;1;1;2, label: 5' biotin-TEG and Cy3 (amino dT-C6) on template, 7 nt upstream from primer 3' terminus, 5' overhang 14 nt on template, terminal G:T mismatch
[5] = target: T1, Pol III alpha (clamp-binding enhanced; …); test: smFRET; dCTP, Mg2+; kon,fast 0.3±0.1, kon,slow 0.020±0.002, koff 0.20±0.01 s-1; 20 mM Hepes pH 7.6, 5 mM potassium glutamate, 3 mM magnesium acetate, 2 mM DTT, 2 mM Trolox, 25 nM enzyme, 10 uM dCTP; temperature not stated. PIFE with unlabeled Pol III alpha or alpha-epsilon at 25 nM showed no binding (DNA not specified, not listed); details: protein: recombinant;recombinant;recombinant;recombinant, (HisTrap purification), Cy5 maleimide at C41;, copies: 1;1;1;2, label: 5' biotin-TEG and Cy3 (amino dT-C6) on template, 7 nt upstream from primer 3' terminus, 5' overhang 14 nt on template, terminal G:A mismatch
[6] = target: T2, Pol III alpha Y453A (clamp-binding …); test: smFRET; dCTP, Mg2+; kon,fast 1.5±0.3, kon,slow 0.04±0.01, koff 0.30±0.02 s-1; 20 mM Hepes pH 7.6, 5 mM potassium glutamate, 3 mM magnesium acetate, 2 mM DTT, 2 mM Trolox, 25 nM enzyme, 10 uM dCTP; temperature not stated. PIFE with unlabeled Pol III alpha or alpha-epsilon at 25 nM showed no binding (DNA not specified, not listed); details: protein: recombinant;recombinant;recombinant;recombinant, (HisTrap purification), Cy5 maleimide at C41;, copies: 1;1;1;2, label: 5' biotin-TEG and Cy3 (amino dT-C6) on template, 7 nt upstream from primer 3' terminus, 5' overhang 14 nt on template, terminal G:A mismatch
[7] = target: T2, Pol III alpha Y453A (clamp-binding …); test: smFRET; non-hydrolyzable dCTP analog (stated for wild type), Mg2+; kon,fast 0.8±0.1, kon,slow 0.04±0.01, koff 0.30±0.01 s-1; 20 mM Hepes pH 7.6, 5 mM potassium glutamate, 3 mM magnesium acetate, 2 mM DTT, 2 mM Trolox, 25 nM enzyme, 10 uM dCTP; temperature not stated. PIFE with unlabeled Pol III alpha or alpha-epsilon at 25 nM showed no binding (DNA not specified, not listed); details: protein: recombinant;recombinant;recombinant;recombinant, (HisTrap purification), Cy5 maleimide at C41;, copies: 1;1;1;2, label: 5' biotin-TEG and Cy3 (amino dT-C6) on template, 7 nt upstream from primer 3' terminus, 5' overhang 14 nt on template, matched G:C terminus
[8] = target: T1, Pol III alpha (clamp-binding enhanced; …); test: smFRET; non-hydrolyzable dCTP analog, Mg2+; kon,fast 0.6±0.1, kon,slow 0.020±0.007, koff 0.20±0.01 s-1; 20 mM Hepes pH 7.6, 5 mM potassium glutamate, 3 mM magnesium acetate, 2 mM DTT, 2 mM Trolox, 25 nM enzyme, 10 uM dCTP; temperature not stated. PIFE with unlabeled Pol III alpha or alpha-epsilon at 25 nM showed no binding (DNA not specified, not listed); details: protein: recombinant;recombinant;recombinant;recombinant, (HisTrap purification), Cy5 maleimide at C41;, copies: 1;1;1;2, label: 5' biotin-TEG and Cy3 (amino dT-C6) on template, 7 nt upstream from primer 3' terminus, 5' overhang 14 nt on template, matched G:C terminus
[9] = target: T2, Pol III alpha Y453A (clamp-binding …); test: smFRET; dCTP, Mg2+; kon N.D., koff 0.30±0.02 s-1; 20 mM Hepes pH 7.6, 5 mM potassium glutamate, 3 mM magnesium acetate, 2 mM DTT, 2 mM Trolox, 25 nM enzyme, 10 uM dCTP; temperature not stated. PIFE with unlabeled Pol III alpha or alpha-epsilon at 25 nM showed no binding (DNA not specified, not listed); details: protein: recombinant;recombinant;recombinant;recombinant, (HisTrap purification), Cy5 maleimide at C41;, copies: 1;1;1;2, label: 5' biotin-TEG and Cy3 (amino dT-C6) on template, 7 nt upstream from primer 3' terminus, 5' overhang 14 nt on template, terminal double mismatch
[10] = target: T1, Pol III alpha (clamp-binding enhanced; …); test: as above; details: protein: recombinant;recombinant;recombinant;recombinant, (HisTrap purification), Cy5 maleimide at C41;, copies: 1;1;1;2, label: 5' biotin-TEG and Cy3 (amino dT-C6) on template, 7 nt upstream from primer 3' terminus, 5' overhang 14 nt on template, terminal double mismatch

B1: G:ddC (dsDNA)
DNA 1: CATAATATCCTCAGGAGTCCTTCGTCCTAGTACTACTCA
DNA 2: TGAGTAGTACTAGGACGAAGGACTC
modifications: 3' dideoxycytosine on primer
B1: binds [1]; binds [2].

B2: G:T (dsDNA)
DNA 1: B1 DNA 1
DNA 2: TGAGTAGTACTAGGACGAAGGACTT
modifications: phosphorothioate in primer (position not given)
B2: binds [3]; binds [4].

B3: G:A (dsDNA)
DNA 1: B1 DNA 1
DNA 2: TGAGTAGTACTAGGACGAAGGACTA
modifications: phosphorothioate in primer (position not given)
B3: binds [5]; binds [6].

B4: G:C (dsDNA)
DNA 1: B1 DNA 1
DNA 2: TGAGTAGTACTAGGACGAAGGACTC
B4: binds [7]; binds [8].

B5: G:AA (dsDNA)
DNA 1: B1 DNA 1
DNA 2: TGAGTAGTACTAGGACGAAGGACAA
modifications: phosphorothioate not stated for this DNA
B5: binds [9]; binds [10].
